Results as given in patent US20090111742A1, “Use of fgf-21 and thiazolidinedione for treating type 2 diabetes” (priority 2004, published 2009).

Experiments:
male ob/ob mice = test: Ob/ob mouse model, blood glucose levels; format: in vivo; settings: 1 hour post dose
Protocol: The Ob/ob mouse model is an animal model for hyperglycemia, insulin resistance and obesity. Male ob/ob mice are used to monitor plasma glucose levels and triglyceride levels after treatment with FGF-21, rosiglitazone, and FGF-21 in combination with rosiglitazone. The test groups of male ob/ob, mice (7 weeks old) are: FGF-21, 5 μg/day; rosiglitazone, 30 mg/kg/day; FGF-21, 3 ug/day, +rosiglitazone, 10 mg/kg/day; FGF-21, 5 ug/day, +rosiglitazone, 30 mg/kg/day; FGF-21, 5 ug/day, +rosiglitazone 10 mg/kg/day; s.c. vehicle control (0.9% NaCl, 0.1 ml/mouse); and, p.o. vehicle control (CMC/SLS/Povidone, 0.2 ml/mouse). FGF-21 is administered s.c. in 0.1 ml, and rosiglitazone is administered p.o. in 0.2 ml.
The animals are dosed daily for 14 days. Blood glucose levels are measured daily, 1 hour post dosing, using a standard protocol.

male db/db mice [1] = test: Db/db mouse model, blood glucose levels; format: in vivo; settings: 1 hour post dose
From the text: (§1) The genetically diabetic C57BL/KsJ (db/db) mouse provides an animal model of type 2 diabetes, characterized by obesity, hyperglycemia and insulin resistance with hyperinsulinemia. (Sharma et al., Am J Physiol Renal Physiol. 284(6):F1138-b 44, (2003)).
(§2) In the present study, male db/db mice, 9 weeks of age are used. The animals are randomized by body weight and blood glucose levels into groups of six mice per group. Group 1: vehicle 1: CMC/SLS/Povidone, p.o. […] The animals are dose for 14 days.
Blood glucose is measured daily, 1 hour post dosing.

male db/db mice [2] = test: Db/db mouse model, plasma triglycerides; format: in vivo
From the text: as §1, §2
Plasma triglycerides are measured on days 7 and 14, 1 hour post dosing.

[3] = tested on: differentiated 3T3-L1 cells; test: Glucose uptake in mouse 3T3-L1 adipocytes (2-deoxy-D-[14C]glucose accumulation); format: cell-based; settings: 72 hr. treatment
Protocol: 3T3-Li cells are obtained from the American Type Culture Collection (ATCC, Rockville, Md.). Cells are cultured in growth medium (GM) containing 10% calf serum in Dulbecco's modified Eagle's medium. For standard adipocyte differentiation, two days after cells reach confluency (referred as day 0), the cells are exposed to differentiation medium (DM) containing 10% fetal bovine serum, 5 μg/ml of insulin, 1 μM dexamethasone, and […] isobutylmethylxanthine, for 48 h and then are exposed to medium containing 10% fetal bovine serum, 5 μg/ml insulin for an additional 48 h. Cells are then maintained in post differentiation medium containing 10% fetal bovine serum.
Glucose Transport Assay—FGF-21 is added to the differentiated 3T3-L1 cells in 96 well plates at 0, 0.016, 0.08, 0.4, 2, 10, or 50.0 nM, and rosiglitazone is added to a final concentration of 1 μM, Table 1. For comparison, rosiglitazone alone is added at the concentrations indicated in Table 2 or in combination with FGF-21 at 1 μg/ml. The plates are incubated at 37° C. for 72 hours.
Hexose uptake, as assayed by the accumulation of 2-deoxy-D-[^14C]glucose, is measured as follows: 24 hours prior to the assay, the wells are rinsed twice with PBS and DMEM (high glucose, 1% antibiotic/antimycotic solution, 2 mM glutamine), 0.1% BSA plus FGF-21 is added. The plates are incubated at 37° C. for 72 hours. The cells are then washed twice with KRP buffer (136 mM NaCl, 4.7 mM KCl, 10 mM NaPO4, 0.9 mM CaCl2, 0.9 MM MgSO4, 0.1% BSA, pH 7.4), and then KRP buffer containing 1% BSA, 2-deoxy-D-glucose, 100 μM, 0.1 μCi/well 2-deoxy-D-[^14C]glucose is added and the plates are incubated at 37° C. for one hour. Cytochalasin B is added to stop further glucose uptake. Uptake is measured on a Microbeta plate reader.

With CN(CCOc1ccc(CC2SC(=O)NC2=O)cc1)c1ccccn1 (stereo not drawn) [Rosi., rosiglitazone, reference compound] the “Blood Glucose Levels in ob/ob mice” value (male ob/ob mice; Rosi. 30 mg/kg/day p.o., day 0) was 225 mg/dL, the “Blood Glucose Levels in ob/ob mice” value (male ob/ob mice; Rosi. 30 mg/kg/day p.o., day 2) was 125 mg/dL and the “Blood Glucose Levels in ob/ob mice” value (male ob/ob mice; Rosi. 30 mg/kg/day p.o., day 4) was 150 mg/dL. For the same molecule, the “Blood Glucose Levels in ob/ob mice” value (male ob/ob mice; Rosi. 30 mg/kg/day p.o., day 6) was 135 mg/dL, the “Blood Glucose Levels in ob/ob mice” value (male ob/ob mice; Rosi. 30 mg/kg/day p.o., day 8) was 115 mg/dL and the “Blood Glucose Levels in ob/ob mice” value (male ob/ob mice; Rosi. 30 mg/kg/day p.o., day 10) was 125 mg/dL. The “Blood Glucose Levels in ob/ob mice” value (male ob/ob mice; Rosi. 30 mg/kg/day p.o., day 12) was 120 mg/dL, the “Blood Glucose Levels in ob/ob mice” value (male ob/ob mice; Rosi. 30 mg/kg/day p.o., day 14) was 115 mg/dL and the “Blood Glucose Levels in db/db mice” value (male db/db mice [1]; Rosi. 10 mg/kg/day p.o., day 0) was 265 mg/dL. For the same molecule, the “Blood Glucose Levels in db/db mice” value (male db/db mice [1]; Rosi. 10 mg/kg/day p.o., day 2) was 370 mg/dL, the “Blood Glucose Levels in db/db mice” value (male db/db mice [1]; Rosi. 10 mg/kg/day p.o., day 4) was 350 mg/dL and the “Blood Glucose Levels in db/db mice” value (male db/db mice [1]; Rosi. 10 mg/kg/day p.o., day 6) was 340 mg/dL. The “Blood Glucose Levels in db/db mice” value (male db/db mice [1]; Rosi. 10 mg/kg/day p.o., day 8) was 265 mg/dL, the “Blood Glucose Levels in db/db mice” value (male db/db mice [1]; Rosi. 10 mg/kg/day p.o., day 10) was 315 mg/dL and the “Blood Glucose Levels in db/db mice” value (male db/db mice [1]; Rosi. 10 mg/kg/day p.o., day 12) was 360 mg/dL. For the same molecule, the “Blood Glucose Levels in db/db mice” value (male db/db mice [1]; Rosi. 10 mg/kg/day p.o., day 14) was 350 mg/dL, the “Plasma Triglycerides” value (male db/db mice [2]; Rosi. 10 mg/kg/day, Day 7, 1 hour post dose) was 135 mg/dL and the “Plasma Triglycerides” value (male db/db mice [2]; Rosi. 10 mg/kg/day, Day 14, 1 hour post dose) was 85 mg/dL.

B1: FGF-21: mature human 181 amino acid FGF-21 polypeptide (SEQ ID NO:1), recombinantly expressed (protein)
chain: HPIPDSSPLLQFGGQVRQRYLYTDDAQQTEAHLEIREDGTVGGAADQSPESLLQLKALKPGVIQILGVKTSRFLCQRPDGALYGSLHFDPEACSFRELLLEDGYNVYQSEAHGLPLHLPGNKSPHRDPAPRGPARFLPLPGLPPALPEPPGILAPQPPDVGSSDPLSMVGPSQGRSPSYAS
modifications: homo sapiens
In the case of B1, the “14C-Deoxyglucose (CPM)” value ([3]; FGF-21 alone 0.4 nM) is reported as 1300 CPM, the “14C-Deoxyglucose (CPM)” value ([3]; FGF-21 alone 2.0 nM) is reported as 2500 CPM and the “14C-Deoxyglucose (CPM)” value ([3]; FGF-21 alone 10.0 nM) is reported as 3100 CPM. The “14C-Deoxyglucose (CPM)” value ([3]; FGF-21 alone 50.0 nM) was 3500 CPM, the “14C-Deoxyglucose (CPM)” value ([3]; FGF-21 alone .016 nM) was 900 CPM and the “14C-Deoxyglucose (CPM)” value ([3]; FGF-21 alone .08 nM) was 1000 CPM. For the same molecule, the “Blood Glucose Levels in ob/ob mice” value (male ob/ob mice; FGF-21 5 μg/day s.c., day 0) was 225 mg/dL, the “Blood Glucose Levels in ob/ob mice” value (male ob/ob mice; FGF-21 5 μg/day s.c., day 2) was 175 mg/dL and the “Blood Glucose Levels in ob/ob mice” value (male ob/ob mice; FGF-21 5 μg/day s.c., day 4) was 150 mg/dL. For the same molecule, the “Blood Glucose Levels in ob/ob mice” value (male ob/ob mice; FGF-21 5 μg/day s.c., day 6) was 140 mg/dL, the “Blood Glucose Levels in ob/ob mice” value (male ob/ob mice; FGF-21 5 μg/day s.c., day 8) was 140 mg/dL and the “Blood Glucose Levels in ob/ob mice” value (male ob/ob mice; FGF-21 5 μg/day s.c., day 10) was 160 mg/dL. The “Blood Glucose Levels in ob/ob mice” value (male ob/ob mice; FGF-21 5 μg/day s.c., day 12) was 180 mg/dL, the “Blood Glucose Levels in ob/ob mice” value (male ob/ob mice; FGF-21 5 μg/day s.c., day 14) was 225 mg/dL and the “Blood Glucose Levels in db/db mice” value (male db/db mice [1]; FGF-21 3 μg/day s.c., day 0) was 265 mg/dL. For the same molecule, the “Blood Glucose Levels in db/db mice” value (male db/db mice [1]; FGF-21 3 μg/day s.c., day 2) was 270 mg/dL, the “Blood Glucose Levels in db/db mice” value (male db/db mice [1]; FGF-21 3 μg/day s.c., day 4) was 280 mg/dL and the “Blood Glucose Levels in db/db mice” value (male db/db mice [1]; FGF-21 3 μg/day s.c., day 6) was 300 mg/dL. The “Blood Glucose Levels in db/db mice” value (male db/db mice [1]; FGF-21 3 μg/day s.c., day 8) was 290 mg/dL, the “Blood Glucose Levels in db/db mice” value (male db/db mice [1]; FGF-21 3 μg/day s.c., day 10) was 325 mg/dL and the “Blood Glucose Levels in db/db mice” value (male db/db mice [1]; FGF-21 3 μg/day s.c., day 12) was 345 mg/dL. The “Blood Glucose Levels in db/db mice” value (male db/db mice [1]; FGF-21 3 μg/day s.c., day 14) was 345 mg/dL, the “Plasma Triglycerides” value (male db/db mice [2]; FGF-21 3 ug/day, Day 7, 1 hour post dose) was 165 mg/dL and the “Plasma Triglycerides” value (male db/db mice [2]; FGF-21 3 ug/day, Day 14, 1 hour post dose) was 120 mg/dL.
